{
  "source": "patent US20230159643A1",
  "target": "Sortilin SORTECD_HIS (human) (UniProt Q99523)",
  "sequence (Q99523 other isoform, or with tags, fused parts or gaps limits assumed)": "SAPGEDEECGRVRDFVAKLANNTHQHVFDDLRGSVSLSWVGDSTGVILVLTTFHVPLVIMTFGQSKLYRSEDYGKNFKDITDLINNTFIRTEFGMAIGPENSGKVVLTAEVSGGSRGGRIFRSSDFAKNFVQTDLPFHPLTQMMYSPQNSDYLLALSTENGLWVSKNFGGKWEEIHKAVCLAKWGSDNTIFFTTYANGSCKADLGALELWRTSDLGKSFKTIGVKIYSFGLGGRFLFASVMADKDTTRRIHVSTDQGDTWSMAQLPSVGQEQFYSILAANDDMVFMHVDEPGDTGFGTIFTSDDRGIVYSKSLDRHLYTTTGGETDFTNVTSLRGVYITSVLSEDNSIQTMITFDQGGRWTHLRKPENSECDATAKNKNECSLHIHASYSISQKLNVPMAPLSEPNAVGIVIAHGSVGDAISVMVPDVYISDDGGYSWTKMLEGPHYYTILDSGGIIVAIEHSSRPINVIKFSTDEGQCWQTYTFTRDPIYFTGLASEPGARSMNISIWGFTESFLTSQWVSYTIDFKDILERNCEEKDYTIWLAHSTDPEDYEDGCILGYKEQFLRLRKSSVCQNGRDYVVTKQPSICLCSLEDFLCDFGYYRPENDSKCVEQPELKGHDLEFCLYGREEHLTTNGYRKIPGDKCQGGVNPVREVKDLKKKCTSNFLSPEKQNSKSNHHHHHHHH",
  "assay": "HTRF: displacement of PGRN binding to His-tagged Sortilin ECD",
  "data": [
    {"substance": "IgG1-b12 (antibody)", "values": [
      {"measurement": "IC50", "value": "> 1000", "unit": "nM"}
    ]}
  ]
}
